Results published in the DeepSol protein solubility set.

Experiment: soluble on expression in E. coli; label from the status in PepcDB or PDB records

Sequence | soluble on expression in E. coli
MQAFEPYIALNSHVRKPVIHISLNPSPKDILSKEQMTVLAQEFMEKFGYGNQPYIVWLHEDIDRKHMHIISVRINEKGEKIDHNREAIRAQNICRDMEVKYGLHSTLGEHSERELLSLQKVDYPKGDVKAQVKHTARTLLECYNCHSLAEYNTLLNLYNVTVYEVRGSVDGKEYYGIMYGALDDDGQQAGTPFKSSKFGKVFGYEALQKKFAATAEKVKRNSLAERARQEIVKAMQDISTKEAFARRLKDADIEVVYRINPEGRLYGITFIDHTNRTVFNGSRLGKAFSANVFNELFNNPDADRTKLIPPPEQDTPRQARETDAEERQEREEYRQQENRGNYQSEPSGSLIDTSALGAIDIFSVLMEDDHTHEYIDPAFRFGHKKKKKRRRRLLEHHHHHH | soluble
MQDLPPCPKCNDAYTYHDGTQLICPSCLYEWNENEVNDEELIVKDCHNNLLQNGDSVILIKDLKVKNSSLVLKKGTKIKNTKLVNSDHNVDCKIEGQSLSLKSEFLKKA | not soluble
MQEIQLSPADDLQQALNNSQNGDVITLGPGSYFGNFIISNQVTLRSNNKGEAIIDSQGKGHGLWLKNSQITIENLTITNWGHDLTDQNSGIYSHGKIDNNKVPSLTIRNNILIGDGFGIWLNQADKAIISHNRVKGNLTLRSADRGNGIQVANVTNSHVFLNEVSETRDGVYVISSQNNIIEQNTMHHLRYGIHYMYSYDNTVKNNTAYDTRAGYALMSSRRLTITGNKTTNSEDYGFLLNFITQSTFSHNYVKNVWTKPENKVLGRDGKGLFVYNSGYNTVKHNIIDTAEIGIHLTAGSENIKIFGNSFINNPTQVKYVSNKKQEWSKDGRGNYWSNYLGWDMGNDGIGDTIFEPNDGIDKLVWQYPEMKMIMDSPAILILRWVQRQFPVLKPPGVKDSFPLMSAPSLTKNEQAATPLAVTTSTFTKSNSAQSANTTSASLKELEHHHHHH | not soluble
MQEKQLKTIQNKIASWIKEIESAFIDELFSKIGPSKMLRSKLMLALLNEKTDAILLDKAFNLCAIVEMIQTASLLHDDVIDKAAMRRKLPSINALFGNFNAVMLGDVFYSKAFFELSKMGESIAKSLSNAVLRLSRGEIEDVFVGGSFNSDKQKYWRILEDKTAHFIEASLKSMAILLNKDAKMYADFGLNFGMAFQIIDDLLDITQDAKTLGKPNFSDFKEGKTTLPYLLLYEKLNQRDQGLLISYFKQDSHEIIEWTKEKFKQYGTIEETLKIAQVYSKKALEAIKGENNLILEKLAQDVIYRTF | not soluble
MQENQQITKKEQYNLNKLQKRLRRNVGEAIADFNMIEEGDRIMVCLSGGKDSYTMLEILRNLQQSAPINFSLVAVNLDQKQPGFPEHVLPEYLEKLGVEYKIVEENTYGIVKEKIPEGKTTCSLCSRLRRGILYRTATELGATKIALGHHRDDILQTLFLNMFYGGKMKGMPPKLMSDDGKHIVIRPLAYCREKDIQRFADAKAFPIIPCNLCGSQPNLQRQVIADMLRDWDKRYPGRIETMFSAMQNVVPSHLCDTNLFDFKGITHGSEVVNGGDLAFDREEIPLQPACWQPEEDENQLDELRLNVVEVKLEHHHHHH | not soluble
MQERILFGTYTKKTSQGIYQGTLDTTAKTLTNDGLLAATQNPTYLALSAKDCLYSVDKEDDEGGIAAWQIDGQTAHKLNTVVAPGTPPAYVAVDEARQLVYSANYHKGTAEVMKIAADGALTLTDTVQHSGHGPRPEQDGSHIHYTDLTPDNRLAVIDLGSDKVYVYNVSDAGQLSEQSVLTMEAGFGPRHLVFSPDGQYAFLAGELSSQIASLKYDAQTGAFTQLGIVKTIPADYTAHNGAAAIRLSHDGHFLYVSNRGYNTLAVFAVTADGHLTLIQQISTEGDFPRDFDLDPTEAFVVVVNQNTDNATLYARDLTSGKLSLLQKDVTVPEGVCVRFLEHHHHHH | soluble
MQFERISTEQKKLSLIQTFLHQNALKLDEQIEYFVVGYNDNEQIVVCGGLAGNIIKCVAIDESLRGSGVALQLITELVDLAYTLKRPHLFIYTKPEYATLFKSCGFYIISDANPYVVLLENSATRLQKQCSLWEKMRVDGNRIGSIVMNANPFTLGHRYLIEQALQQCDHLHLFIVGEDASQFSYTERFEMIQQGIFDLSNITLHSGSDYIISRATFPNYFLKDQLITDESYFEIDLKLFRLHIAQALGITHRFVGTELNCPVTAEYNRQMHYWLMDAEMNAPKINVIEIPRKTASNHIISASTVRKHLAEKNWAQLAEFVPMTTLNYLQKCGRF | soluble
MQFIKNLQLNKKKDSDSSEQVLTNKKNKMKYEDFNFIRTLGTGSFGRVILATYKNGNYPPVAIKRFEKCKIIRQKQVDHVFSERKILNYINHPFCVNLHGSFKDDSYLYLVLEFVIGGEFFTFLRRNKRFPNDVGCFYAAQIVLIFEYLQSLNIVYRDLKPENLLLDKDGFIKMTDFGFAKIVETRTYTLCGTPEYIAPEILLNVGHGKAADWWTLGIFIYEILVGCPPFYANEPLLIYQKILEGIIYFPKFLDNNCKHLMKKLLSHDLTKRYGNLKKGAQNVKEHPWFSNIDWVNLLNKNVEVPYKPKYKNIFDSSNFERVQEDLTIADKITNENDPFYDW | not soluble
MQGFASQPESSYWYPETLLDWSPETDPDARFNRSSIPLREREVLYTVNDTQQTDAKLVALSALNPNTSGVPSQGGNEFFANTFGFWQYVDLMVYWAGSAGEGIITPPSGDVIDAAHRNGVPILGNVFFPPKVYGGQEEWVDKMLVRGEDGSFPAADKLLEVAEYYGFDGWFINQETEGGTPETAKDMQEFLLYLQENKPEGMHIMWYDSMISNGDIRWQNYLTDENAMFFQAGNRKVADSMFLNFWWWNHSQERSKQKAASLGRSPYDLYAGIDVEANGTNTYVNWQQVFPEGGEPHTSLGIYRPDWAFKSTDTMRDFYDREQLFWVGPSGNPAKVDEHAEWKGMATYFPEKTVINELPFVTHFNTGSGQFFAINGKTKLEHHHHHH | not soluble
MQGLTATLLPFGATLAKLTFPDKNGKNQDLVLGFDTIDEFEKDAASIGKTVGRVANRIKNSTLHFDGKQYTMTPNNGPHYLHGGPNGLGYRKWEVVRHAPESVSFSVRANEQDDGLPGDAKIDVTYTVNDRNQLIIEHHATCDTPGLLALTNHAYWNLDGSDTVAEHFLEMEADEFVEVDDTFCPTGAIRSVTDTGFDFRSGKQLKESGKDAEELLDLDNDLVITKKTP | not soluble
MQGMREIKRRIRSVKNTRQITKAMKMVAAAKLRRAQETAENARPYADKIKEVISSIAAGTKDFSHPMLEARPVKKTGYMVITSDRGLAGPYNANILRLVSKTIEERHQSKDEYVIFAVGRKGRDFFKKRGYPVVEEVTGISDTPSLTEIQDIAQSAIGMFADETFDKLTIFYNEFVSPIVQRPVEKQLLPLTSEEVLDGPVSAYEYEPDSESVLEVLLPKYAETLIYSALLDAKASEFGARMTAMGNATDNATEMLETLTLQFNRARQAAITQEIAEIVAGANALR | soluble
MQIAREETRKSGANILYVINHQRPSIFGSSMHQIGGLMLLSDSVVRNEGEGYPDSLLYDSGQRGKIGSRIKAPVHDLSFHFGPSTITNRTKGLSYSEQQLEKKLSNGLSFVLQYKCHPKGNLYGFGLIASRYEADITKKIEYQGIGFANRLDYIAPLFSMSTALSERWFLGMSFGKDGSQSVRLHYRFARLPVDRDLSAVGCVRKKSPHTDDCRLTVSPLYRPS | not soluble
MQIDVNVEVKEKPTGAVMFGAGYSNMEGLILSGSVAQDNIFGTGKFVNLMVNTGSVNKTYSLSYTDPYFTKDGVTAGLDLYKRVLNTRTLSSVMNFNTDTLGAGLRFGIPINENDSIMGGLGAEQTTIDLGPDSPQRNIDFVNKFGRTTINIPATLSWRRDGRDSAIWTTSGTTQRVFAEVGLPGGDLTYYKLSYDLRWYFPITEIFTLMLNGELGYGDGYSGKELPFFKNFFAGGNTSVRGYNISSLGPRDATNRTLGGNKRAVGNIEVLFPMPGMRNDRTVRLSAFLDGGTVWGPGGVRPDQEGLRYSAGIAVTWISPMGPLKISVAQPLNSQPGDNIQRFQFQFGQQFLEHHHHHH | not soluble
MQKDYQKLIVYLCDFLEKEVQKRGFKKVVYGLSGGLDSAVVGVLCQKVFKENAHALLMPSSVSMPENKTDALNLCEKFSIPYTEYSIAPYDAIFSSHFKDASLTRKGNFCARLRMAFLYDYSLKSDSLVIGTSNKSERMLGYGTLFGDLACAINPIGELFKTEVYELARRLNIPKKILNKPPSADLFVGQSDEKDLGYPYSVIDPLLKDIEALFQTKPIDTETLAQLGYDEILVKNITSRIQKNAFKLELPAIAKRFNPELEHHHHHH | soluble
MQKIGEWLKEHDVKVTTIYFGGGTPTSITAEEMDLLYEEMVRSFPDVKNIREITVEAGRPDTITEEKLAVLNKYDIDRISINPQSYENETLKAIGRHHTVEETIEKYHLSRQHGMNNINMDLIIGLPGEGVKEFRHSLSETEKLMPESLTVHTLSFKRASEMTRNKHKYKVAGREEVSQMMEDAVAWTKEHGYVPYYLYRQKNILGNLENVGYSLPGQESIYNIMIMEEVQTIIGIGCGAASKFIDRDTGKITHFANPKDPKSYNERFEHYTDEKIKYLEQIFEKTTKQHLEHHHHHH | not soluble
MQLKRVAEAKLPTPWGDFLMVGFEELATGHDHLALIFGDISGDKPVLSRVHSECLTGDALFSLRCDCGFQLEVALTRIAEEGRGVLIYHRQEGRNIGLLNKIRAYALQDLGADTVEANHQLGFAADERDFTLCSDMYKLLGIKAVRLLTNNPKKVEILTQAGINIVERVPLIVGENPKNEHYLATKAAKMGHLLTK | not soluble
MQMAGFGLIAKLRNKIRVKPNNKIQIGKNTRIRYCDIYVNGNNNQLIIHNGANLKGVSIELNGNNCLLEIGENCVIGENCFLSCRESGTKLVIGKECMFSRNVKLMTSDGHDILRDGKRINPAKSIYIGSHVWLADNVTILKGVDIGSGSIIGINSTVTKSIGQYCIAAGNPARKIKDNISWNTTLSY | not soluble
MQNDMSVVLRAGKLLIESGAEVYRVEDTMKHFAKALQIENFEAYVVSSSIIASGINRYGKQEAKVCNTDGVTANLGRLEAVNNLSRQIAKQDLVSPEEIVKQLDLIEHQKD | not soluble
MQNEGQYAEADALLLSLVAAKDAHLMGERTVLGLPRRLHAARLRLAKAEGDLVARIGYQYTLVPPPDMLAKYTQFSAEDRRMINRKSREDVPRLIHQIWIGEKAPPISVKAWAAHAARHGYDYRLWREADLEREGVFSNAIFNRMLSEGDYPGAVDVARYILLERFGGIYLDCDWYPARDDRSFDAFVPLAGLTAFDEKTPRDTGQGSMLLANSFIAAPAGHPVFRKMLDSFPGIIEEMPRAPAWWSTGPLIFTVIARAGSISLAPASFVAVTLADRAPLEEVEAIRRELATQDSGMLIAWKSWLEHHHHHH | soluble
MQNETRTLQLDPHLHIEAYRFKGIMQKFPNHFHDYYVIGFIEKGQRYLACQDQEYIINPGDLLLFNPRDTHSCEQIDGRTLDYRCINVMPDIMEKAVKEITGSGHLPYFSQHVLFRHELTASLQELHILISEEKQALRKEELFLHLLEELIRHYSDVTFLSSVPEPSDEVKMVCE | not soluble
MQNPFVPQLVYIEPRALEYPLGQELQDKFENMGIEIRETTSHNQVRNIPGKNHLQQYRNAKSTLVIGVRKTLKFDSSKPSAEYAIPFATGCMGHCHYCYLQTTMGSKPYIRTYVNVEEILDQADKYMKERAPEFTRFEASCTSDIVGIDHLTHTLKRAIEHFGQSDLGKLRFVTKFHHVDHLLDAKHNGKTRFRFSINADYVIKNFEPGTSPLDKRIEAAVKVAKAGYPLGFIVAPIYIHEGWEEGYRHLFEKLDAALPQDVRHDITFELIQHRFTKPAKRVIEKNYPKTKLELDEEKRRYKWGRYGIGKYIYQKDEEHALREALESYIDTFFPNAKIEYFT | not soluble
